Molecular target: the molecule itself
Assay: NMR relaxation

B1: Smad5 MH1 domain (wild type) (domain or fragment, Homo sapiens)
chain: GPSFTSPAVKRLLGWKQGDEEEKWAEKAVDALVKKLKKKKGAMEELEKALSSPGQPSKCVTIPRSLDGRLQVSHRKGLPHVIYCRVWRWPDLQSHHELKPLDICEFPFGSKQKEVCINPYHYKRVESPVLPP
  Kd: 8.3 ± 1.5 mM
